Where no end group is shown, it is not given here.
What was measured:
[1] = target: T1, Anti-CD28 scFv (VH - linker 1 - VL) (biotinylated (site not stated)); assay: phage ELISA as above, wells pre-incubated with soluble CD28 (competitor);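 also: ELISA of crude clonal phage supernatants added to wells pre-treated with soluble CD28 in blocking buffer, bound phage read out with HRP-conjugated anti-M13 antibody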
T1 construct: Captured as biotinylated scFv on neutravidin plates in the panning ELISA
T1 sequence (scFv, as listed by the source): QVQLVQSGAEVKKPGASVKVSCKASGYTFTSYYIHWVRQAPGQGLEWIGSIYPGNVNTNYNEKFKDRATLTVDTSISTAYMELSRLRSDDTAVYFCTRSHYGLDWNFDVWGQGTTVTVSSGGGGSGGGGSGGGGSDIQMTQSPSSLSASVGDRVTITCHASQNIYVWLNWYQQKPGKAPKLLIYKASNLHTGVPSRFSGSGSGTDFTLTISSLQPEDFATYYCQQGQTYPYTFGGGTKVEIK

[2] = target: T1, Anti-CD28 scFv (VH - linker 1 - VL); assay: phage ELISA: biotinylated anti-CD28 scFv on neutravidin plate, clonal phage supernatant, anti-M13-HRP detection;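 also: competition format: before phage supernatant was added, wells were preincubated with soluble CD28 protein or with blocking buffer only, and phage were added without an intervening wash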
Protocol: (§1) Clonal phage were harvested as crude supernatants and screened via standard enzyme linked immunosorbent assays (ELISAs). […] Prior to the addition of clonal phage, wells were incubated with blocking buffer and CD28 soluble protein or blocking buffer alone. Without washing or aspirating, clonal phage supernatants were then added to the wells and incubated for a short time. Wells were then washed followed by detection of bound phage using a horse radish peroxidase conjugated anti-M13 antibody.

[3] = target: T2, anti-CD28 scFv (VH - linker 1 - VL) (biotinylated (site not stated)); assay: phage ELISA as above, wells pre-incubated with soluble CD28 as competitor
[4] = target: T2, anti-CD28 scFv (VH - linker 1 - VL); assay: phage ELISA; biotinylated anti-CD28 scFv on neutravidin plate, clonal phage supernatant, anti-M13 HRP detection;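 also: before phage addition, wells were pre-incubated with blocking buffer plus soluble CD28 protein, or blocking buffer only, with no wash in between, signal reflects phage remaining bound after washing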
Protocol: as §1

[5] = target: T3, anti-CD28 scFv (VH - linker 1 - VL) (biotinylated (site not given)); assay: phage ELISA as above; wells pre-incubated with soluble CD28 as competitor;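 also: crude clonal phage supernatants tested, with bound phage detected by HRP-conjugated anti-M13 antibody, and reference wells given blocking buffer without CD28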
T3 construct: Biotinylated scFv captured on neutravidin coated plates in the panning ELISA

[6] = target: T4, Anti-CD28 scFv (VH - linker 1 - VL) (biotinylated (site not stated)); assay: phage binding ELISA on captured anti-CD28 scFv; wells pre-incubated with soluble CD28 protein (competitor)
T4 sequence (scFv, as listed by the source): as above

[7] = target: T4, Anti-CD28 scFv (VH - linker 1 - VL); assay: phage binding ELISA; biotinylated anti-CD28 scFv on neutravidin plate, clonal phage supernatant, anti-M13 HRP detection
Protocol: as §1

[8] = target: Anti-CD28 scFv (VH - linker 1 - VL) (biotinylated (site not given)); assay: phage binding ELISA on anti-CD28 scFv plate; wells pre-incubated with soluble CD28 as competitor;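 also: clonal phage supernatants tested, bound phage read out with an HRP-linked anti-M13 antibody, reference wells received blocking buffer lacking CD28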
Chain of Anti-CD28 scFv (VH - linker 1 - VL) (biotinylated (site not given)) (scFv, as listed by the source): as above

T2 sequence (scFv, as listed by the source): as above
T3 sequence (scFv, as listed by the source): as above

## MDWCPRNMWNECFF [Phage-398]
[1]
  CD28 scFv signal in presence of CD28: 0.43
[2]
  CD28 scFv signal: 2.1

## MHWCPTYMWSECFA [Phage-400]
[1]
  CD28 scFv signal in presence of CD28: 0.161
[2]
  CD28 scFv signal: 1.84

## IGKLTLCLNADLVI [Phage-187]
[3]
  CD28 scFv signal in presence of CD28: 0.1
[4]
  CD28 scFv signal: 0.116

## MHWCPINLWNECFS [Phage-184]
[3]
  CD28 scFv signal in presence of CD28: 0.098
[4]
  CD28 scFv signal: 0.316

## DVWCPKYMWSLCFN [Phage-192]
[3]
  CD28 scFv signal in presence of CD28: 0.418
[4]
  CD28 scFv signal: 2.53

## MDWCPRDMWTSCFN [Phage-404]
[1]
  CD28 scFv signal in presence of CD28: 0.179
[2]
  CD28 scFv signal: 1.41

## MDWCPKHLWNECFN [Phage-174]
[3]
  CD28 scFv signal in presence of CD28: 0.105
[4]
  CD28 scFv signal: 0.663

## MDWCPRYLWNVCFN [Phage-105]
[5]
  CD28 scFv signal in presence of CD28: 0.57

## MDWCPMDMWVNCFN [Phage-193]
[3]
  CD28 scFv signal in presence of CD28: 0.277
[4]
  CD28 scFv signal: 2.52

## MDWCPRAMWDYCFY [Phage-397]
[1]
  CD28 scFv signal in presence of CD28: 0.339
[2]
  CD28 scFv signal: 2.11

## MDWCPMYLWNECFN (peptide, not shown: large carriers) [Phage-65 clonal phage peptide]
[6]
  CD28 scFv signal in presence of CD28: 0.471
[7]
  CD28 scFv signal: 2.61

## MDWCPRDMWYECFN [Phage-191]
[3]
  CD28 scFv signal in presence of CD28: 0.235
[4]
  CD28 scFv signal: 2.56

## VDWCPRYLWHVCYN [Phage-189]
[3]
  CD28 scFv signal in presence of CD28: 0.061
[4]
  CD28 scFv signal: 0.065

## MHWCPRSLWNECYF [Phage-182]
[3]
  CD28 scFv signal in presence of CD28: 0.115
[4]
  CD28 scFv signal: 0.456

## MYWCPRDLWDVCFN [Phage-181]
[3]
  CD28 scFv signal in presence of CD28: 0.102
[4]
  CD28 scFv signal: 0.512

B1: Phage-265 (peptide)
peptide: MDWCPRFMWDLCFA
modifications: cysteine pairing not given here; also: displayed on phage as pIII fusion, fusion limits and linker not given here
notes: Clonal phage of the Peptide-9 library, tested as crude phage supernatant; not shown: pIII of the bacteriophage
[8]
  CD28 scFv signal in presence of CD28: 0.725

## MDWCPKDMWAECFN [Phage-395]
[1]
  CD28 scFv signal in presence of CD28: 0.457
[2]
  CD28 scFv signal: 2.11

## QDWCPTYLWHHCFN [Phage-186]
[3]
  CD28 scFv signal in presence of CD28: 0.122
[4]
  CD28 scFv signal: 0.123

## IDWCPRDLWALCFN [Phage-183]
[3]
  CD28 scFv signal in presence of CD28: 0.129
[4]
  CD28 scFv signal: 0.37

## TDWCPRDMWYLCFN [Phage-396]
[1]
  CD28 scFv signal in presence of CD28: 0.301
[2]
  CD28 scFv signal: 2.11

## MDWCPMNLWSECFN [Phage-173]
[3]
  CD28 scFv signal in presence of CD28: 0.124
[4]
  CD28 scFv signal: 0.67

## MDWCPRDMWAECFF [Phage-190]
[3]
  CD28 scFv signal in presence of CD28: 2.26
[4]
  CD28 scFv signal: 2.69

## MDWCPVSLWDHCFN [Phage-177]
[3]
  CD28 scFv signal in presence of CD28: 0.1
[4]
  CD28 scFv signal: 0.616

## MSWCPWDMWNECFA [Phage-403]
[1]
  CD28 scFv signal in presence of CD28: 0.108
[2]
  CD28 scFv signal: 1.52

## LDWCPRDLWHVCFF [Phage-178]
[3]
  CD28 scFv signal in presence of CD28: 0.105
[4]
  CD28 scFv signal: 0.61

Reference: patent publication US20260242478A1 (published 2026)
